The record followed here is publication PMC11903955.

The target of this data set is T1, CDK8 (Arabidopsis thaliana, UniProt Q84TI6 1-470).
T1 sequence: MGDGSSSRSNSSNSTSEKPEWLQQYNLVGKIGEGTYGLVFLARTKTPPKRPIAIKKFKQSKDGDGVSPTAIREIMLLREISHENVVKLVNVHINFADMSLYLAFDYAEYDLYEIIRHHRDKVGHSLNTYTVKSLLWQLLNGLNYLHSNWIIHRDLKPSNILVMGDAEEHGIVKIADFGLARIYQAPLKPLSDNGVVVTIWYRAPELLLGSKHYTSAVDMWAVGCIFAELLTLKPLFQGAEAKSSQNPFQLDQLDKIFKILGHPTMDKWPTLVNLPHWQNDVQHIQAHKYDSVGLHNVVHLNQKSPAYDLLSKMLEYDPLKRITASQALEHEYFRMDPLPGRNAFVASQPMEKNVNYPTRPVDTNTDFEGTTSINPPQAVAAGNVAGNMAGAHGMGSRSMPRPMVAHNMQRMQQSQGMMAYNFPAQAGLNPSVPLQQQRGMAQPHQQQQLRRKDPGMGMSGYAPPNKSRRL
Nature of the data set: EMSA. (In general: Mobility shift assays separate free from complexed probe on a gel.)

B1: AT-rich probe (dsDNA)
DNA 1: TAACACATATTTTGATAAATTTATTACTAAAACTATTTT
DNA 2: AAAATAGTTTTAGTAATAAATTTATCAAAATATGTGTTA
For B1, the binding result is “no binding”.
